Measurements reported in patent US20160272706A1 (AstraZeneca / MedImmune, published 2016).

Assays:
Human IL-13 [1] = target: T1, Human IL-13 (human, UniProt P35225 35-146); assay: biochemical receptor-ligand inhibition assay, purified scFv titrated (second panel); the IL-13 receptor used is not named in Example 1
T1 construct: also called human interleukin 13 (Peprotech); the antigen

Human IL-13 [2] = target: T1, Human IL-13; assay: IC50 of the parent scFv divided by IC50 of the clone, biochemical receptor-ligand inhibition assay, purified scFv
Human IL-13 [3] = target: T1, Human IL-13; assay: BIAcore
Human IL-13 [4] = target: T1, Human IL-13; assay: IC50 of the parent scFv divided by IC50 of the clone, biochemical receptor-ligand inhibition assay, purified scFv (second panel)
Human IL-13 [5] = target: T1, Human IL-13; assay: biochemical receptor-ligand inhibition assay, purified scFv titrated; the IL-13 receptor used is not named in Example 1
[6] = target: FLAG-tagged human IL-13 (R130 variant) (human, UniProt P35225 35-146); assay: HTRF receptor-ligand competition; FLAG-tagged human IL-13 (312.5 pM) against DyLight650-labelled human IL-13Rα2 (10 nM); geometric mean
Human IL-13 [7] = target: T1, Human IL-13; assay: KinExA at 37° C., IgG fixed at 100 or 4 pM, human IL-13 titrated

| IC50 (Human IL-13 [1]) [nM] | Fld improvement (Human IL-13 [2]) [fold] | Kd (Human IL-13 [3]) [nM] | Fld improvement (Human IL-13 [4]) [fold] | IC50 (Human IL-13 [5]) [nM] | IC50 [6] [nM] | Kd (Human IL-13 [7]) [nM] | Binder |
| --- | --- | --- | --- | --- | --- | --- | --- |
| 46 | 1 | 0.081 | 1 | 40.6 |  |  | BAK1183H4 antibody (antibody, V domains shown, also called 1183H04; BAK1183H04) VH: QVQLVQSGAEVKKPGASVKVSCKASGYTFTNYGLSWVRQAPGQGLEWMGWINYDGGNTQYGQEFQGRVTMTTDTSTSTAYMELRSLRSDDTAVYYCARDSSSSWARWFFDLWGRGTLVTVSS VL: SYVLTQPPSVSVAPGKTARIPCGGNIIGSKLVHWYQQKPGQAPVLVIYDDGDRPSGIPERFSGSNSGNTATLTISRVEAGDEADYYCQVWDTGSDPVVFGGGTKLTVL |
|  |  |  |  |  | 1.34 |  | 1183H4_VH_VL_nonGL IgG1-YTE (antibody, V domains shown, Non-germlined parent as IgG1 with the YTE mutations (M252Y/S254T/T256E, EU); also called Parent IgG1-YTE; parent clone) VH: QVQLVQSGAEVKKPGASVKVSCKASGYTFTNYGLSWVRQAPGQGLEWMGWINYDGGNTQYGQEFQGRVTMTTDTSTSTAYMELRSLRSDDTAVYYCARDSSSSWARWFFDLWGRGTLVTVSS VL: SYVLTQPPSVSVAPGKTARIPCGGNIIGSKLVHWYQQKPGQAPVLVIYDDGDRPSGIPERFSGSNSGNTATLTISRVEAGDEADYYCQVWDTGSDPVVFGGGTKLTVL |
|  | 5.02 |  |  | 8.09 |  | 0.0046 | 13NG0073 (antibody, V domains shown, IgG in the KinExA assay; also called IL13NG0073) VH: QVQLVQSGAEVKKPGASVKVSCKASGYTFTNYGLSWVRQAPGQGLEWMGWINYDGGNTQYGQEFQGRVTMTTDTSTSTAYMELRSLRSDDTAVYYCARDSSSSWARWFFDLWGRGTLVTVSS VL: SYVLTQPPSVSVAPGKTARIPCGGNLIGARLVHWYQQKPGQAPVLIIMDDIDRPSGIPERFSGSNSGNTATLTISRVEAGDEADYYCQVWDTGSRPVVFGGGTKLTVL |
|  | 3.76 |  |  | 10.8 |  | 0.004 | 13NG0074 (antibody, V domains shown, IgG in the KinExA assay) VH: QVQLVQSGAEVKKPGASVKVSCKASGYTFTNYGLSWVRQAPGQGLEWMGWINYDGGNTQYGQEFQGRVTMTTDTSTSTAYMELRSLRSDDTAVYYCARDSSSSWARWFFDLWGRGTLVTVSS VL: SYVLTQPPSVSVAPGKTARIPCGGNLIGARLVHWYQQKPGQAPVLIMFDDQDRPSGIPERFSGSNSGNTATLTISRVEAGDEADYYCQVWDTGSLPVVFGGGTKLTVL |
| 6.53 |  |  | 7 |  |  |  | 13NG0088 (scFv, V domains shown, purified scFv from the mini-recombination library; member of group m20; also called ZZ0SEC-C01; copies: 1 + 1) VH: QVQLVQSGAEVKKPGASVKVSCKASGYTFTNYGLSWVRQAPGQGLEWMGWINYDGGNTQYGQEFQGRVTMTTDTSTSTAYMELRSLRSDDTAVYYCARDSSSSWARWFFDLWGRGTLVTVSS VL: SYVLTQPPSVSVAPGKTARIPCGGNLIGARLVHWYQQKPGQAPVLVIMDDIDRPSGIPERFSGSNSGNTATLTISRVEAGDEADYYCQVWDTGSRPVVFGGGTKLTVL |
